Source: patent US20240294626A1 (Novartis, published 2024)

T1: Recombinant marmoset IL-18 (marmoset, UniProt U3CWC9 37-190)
T1 sequence: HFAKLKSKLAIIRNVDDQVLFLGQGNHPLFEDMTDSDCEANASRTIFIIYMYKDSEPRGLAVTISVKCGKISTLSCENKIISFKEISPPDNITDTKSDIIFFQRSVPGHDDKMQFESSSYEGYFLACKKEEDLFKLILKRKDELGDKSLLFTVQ

B1: mAb2 (antibody, human IgG1, kappa, V domains shown)
VH: QVQLVESGGGVVQPGRSLRLSCAASGFTFSVYGMNWVRQAPGKGLEWVAIIWYDGDNQYYADSVKGRFTISRDNSKNTLYLQMNGLRAEDTAVYYCARDLRTGPFDYWGQGTLVTVSS
VL: EIVLTQSPDFQSVTPKEKVTITCRASQSIGSSLHWYQQKPDQSPKLLIKYASQSFSGVPSRFSGSGSGTDFTLTINSLEAEDAAAYYCHQSSSLPFTFGPGTKVDIKR
notes: Human anti-IL-1β monoclonal antibody, kappa light chain; also called IL-1β antibody
B2: mAb1 (antibody, human IgG1, lambda, L234A L235A, V domains shown)
VH: EVQLVQSGAEVKKPGSSVKVSCKASGGTFKSYAISWVRQAPGQGLEWMGNIIPMTGQTYYAQKFQGRVTITADESTSTAYMELSSLRSEDTAVYYCARAAYHPLVFDNWGQGTLVTVSS
VL: DIVLTQPPSVSGAPGQRVTISCSGSSSNIGNHYVNWYQQLPGTAPKLLIYRNNHRPSGVPDRFSGSKSGTSASLAITGLQSEDEADYYCQSWDYSGFSTVFGGGTKLTVLG
notes: Human anti-IL-18 monoclonal antibody, lambda light chain; also called IL-18 antibody

Experiments:
[1] = molecular target: T2, Recombinant human IL-1β (human, UniProt P01584 117-269); test: cell-based or functional assay
[2] = molecular target: T3, Recombinant marmoset IL-1β (marmoset, UniProt U3E018 117-268); test: cell-based or functional assay
[3] = molecular target: T4, Recombinant human IL-18 (human, UniProt Q14116 37-193); test: SET, simultaneous target binding Assay B (both targets in serial dilutions in one mix)
T4 construct: also called huIL-18; hulL-18
Procedure: (§1) Assay B: The equilibration process (antibody/antigen mix) was performed with both targets in serial dilutions in one mix simultaneously (constant concentration of antibody 10 pM, highest antigen conc. see above). The same mix was then analyzed for its free antibody concentration on IL18 and IL-1β coated plates as described above.

[4] = molecular target: T4, Recombinant human IL-18; test: cell-based or functional assay
[5] = molecular target: T1, Recombinant marmoset IL-18; test: cell-based or functional assay
[6] = molecular target: T2, Recombinant human IL-1β; test: SET, simultaneous target binding Assay B (both targets in serial dilutions in one mix)
Procedure: as §1

[7] = molecular target: T3, Recombinant marmoset IL-1β; test: as above
Procedure: as §1

Row | Binder | IC50, inhibition of IL-6 production in human PBMC stimulated with recombinant human IL-1β (60 pM) [1] [nM] | IC50, inhibition of IL-6 production in human dermal fibroblasts stimulated with recombinant human IL-1β (6 pM) [1] [pM] | IC50, inhibition of IL-6 production in human dermal fibroblasts stimulated with recombinant marmoset IL-1β (18 pM), Exp. C [2] [nM] | IC50, inhibition of IL-6 production in marmoset dermal fibroblasts stimulated with recombinant marmoset IL-1β (18 pM), Exp. A [2] [pM] | IC50, inhibition of IL-6 production in marmoset dermal fibroblasts stimulated with recombinant marmoset IL-1β (18 pM), Exp. B [2] [nM] | binding result [3] | IC50, inhibition of IFNγ production in KG-1 cells stimulated with recombinant human IL-18 (3 nM) and human IL-12 (1 ng/ml) [4] [nM] | IC50, inhibition of IFNγ production in human PBMC stimulated with recombinant human IL-18 (3 nM) and human IL-12 (1 ng/ml) [4] [nM] | IC50, inhibition of IFNγ production in human PBMC stimulated with recombinant marmoset IL-18 (1 nM) and human IL-12 (10 ng/ml) [5] [nM] | IC50, inhibition of IFNγ production in marmoset whole blood stimulated with recombinant marmoset IL-18 (0.3 nM) and human IL-12 (10 ng/ml) [5] [nM] | IC50, inhibition of IFNγ production in marmoset whole blood stimulated with recombinant marmoset IL-18 (3 nM) and human IL-12 (10 ng/ml) [5] [nM] | binding result [6] | binding result [7]
1 | B1 | 0.29 | 31 | 0.114 | 95 | 0.138 | no binding (tested: highest antigen conc. 5 nM) |  |  |  |  |  |  | 
2 | B2 |  |  |  |  |  |  | 0.035 | 0.78 | 6.6 | 4.7 | 181 | no binding (tested: highest antigen conc. 0.5 nM) | no binding (tested: highest antigen conc. 0.5 nM)
